9 molecules from publication PMC3760798, “Analysis of the RelA:CBP/p300 Interaction Reveals Its Involvement in NF-κB-Driven Transcription” (PLoS Biology, 2013) can be followed below.

Where a chain is given by its changes, count along the chain named. Names may count otherwise.

To fix the notation:
B1: GB1-tagged RelA–TA2 fragment 425–508 wt (domain or fragment, mouse, UniProt Q04207 425-508, looked up)
chain: KSTQAGEGTLSEALLHLQFDADEDLGALLGNSTDPGVFTDLASVDNSEFQQLLNQGVSMSHSTAEPMLMEYPEAITRLVTGSQR
notes: GB1 is the 58-residue B1 domain of streptococcal protein G, kept for concentration determination; also called RelA–TA2 fragment of Lys425–Arg508; source: expressed as His6-GB1 fusion, purified; His6-tag cleaved by TEV protease; not shown: His6, N-terminal, cleaved; GB1, N-terminal, kept
B2: GB1-tagged RelA–TA2 fragment 425–508 (L465A) (domain or fragment, mouse, UniProt Q04207 425-508, looked up)
chain: B1 chain with L41A
notes: also called Leu465Ala; source: expressed as His6-GB1 fusion, purified; His6-tag cleaved by TEV protease; not shown: His6, N-terminal, cleaved; GB1, N-terminal, kept
B3: GB1-tagged RelA–TA2 fragment 425–508 (L449A) (domain or fragment, mouse, UniProt Q04207 425-508, looked up)
chain: B1 chain with L25A
notes: also called Leu449Ala; source: expressed as His6-GB1 fusion, purified; His6-tag cleaved by TEV protease; not shown: His6, N-terminal, cleaved; GB1, N-terminal, kept
B4: GB1-tagged RelA–TA2 fragment 425–508 (S467D) (domain or fragment, mouse, UniProt Q04207 425-508, looked up)
chain: B1 chain with S43D
notes: also called RelA(Ser467Asp); phosphomimetic mutant; source: expressed as His6-GB1 fusion, purified; His6-tag cleaved by TEV protease; not shown: His6, N-terminal, cleaved; GB1, N-terminal, kept
B5: GST-RelA fragment (Lys425–Pro490) Met483Ala (domain or fragment, mouse, UniProt Q04207 425-490, looked up)
chain: KSTQAGEGTLSEALLHLQFDADEDLGALLGNSTDPGVFTDLASVDNSEFQQLLNQGVSASHSTAEP
notes: also called RelA–TA2 M483A (GST); source: E. coli BL21(DE3), purified (glutathione sepharose); not shown: GST, N-terminal, kept
B6: RelA–TA2 (residues 425–490), tag cleaved (domain or fragment, mouse, UniProt Q04207 425-490, looked up)
chain: B5 chain with A59M
notes: 15N/13C labelled for NMR; source: expressed as His6-GB1 fusion, purified (Ni-NTA under denaturing conditions, thrombin cleavage, reverse-phase HPLC); not shown: His6, N-terminal, cleaved; GB1, N-terminal, cleaved
B7: GST-RelA fragment (Lys425–Pro490), wild type (domain or fragment, mouse, UniProt Q04207 425-490, looked up)
chain: B5 chain with A59M
notes: also called GST-RelA–TA2; construct T11; source: E. coli BL21(DE3), purified (glutathione sepharose); not shown: GST, N-terminal, kept
B8: TAZ1 domain of mouse CBP (residues 340–439) (domain or fragment)
chain: not shown
notes: Isotopically labelled in some NMR samples; also called CBP–TAZ1; CH1; source: purified
B9: GB1-tagged RelA fragment 441–508 wt (domain or fragment, mouse, UniProt Q04207 441-508, looked up)
chain: LQFDADEDLGALLGNSTDPGVFTDLASVDNSEFQQLLNQGVSMSHSTAEPMLMEYPEAITRLVTGSQR
notes: RelA (p65), mouse, residues 441-508; also called N-terminal truncation to remove residues Lys425–His440; source: expressed as His6-GB1 fusion, purified; His6-tag cleaved by TEV protease; not shown: His6, N-terminal, cleaved; GB1, N-terminal, kept

Holding throughout (settings): both partners purified
Assay [1] deals with B8. In words: ITC; TAZ1 (169 to 185 µM) in the syringe, GB1-tagged RelA–TA2 peptide (10 to 18 µM) in the cell; 25°C; 20 mM Tris pH 8.0, 50 mM NaCl, 1 mM DTT; single-binding site model.
The target of assay [2] is B8. In words: ITC; TAZ1 (169 to 185 µM) in the syringe, GB1-tagged RelA–TA2 peptide (10 to 18 µM) in the cell; 25°C; 20 mM Tris pH 8.0, 150 mM NaCl, 1 mM DTT; single-binding site model.
The target in assay [3] is B8. Description: pull-down; GST-RelA fragments (20 µg) on glutathione sepharose beads with purified TAZ1 (10 µg); 20 mM Tris pH 7.5, 150 mM NaCl, 0.5 mM DTT; 4°C, 30 min; washes with 0.3% TritonX-100; SDS-PAGE.
Assay [4] has as its target B8. Description: NMR structure; solution structure of the complex; refolded TAZ1 and RelA fragment mixed; 25°C, 20 mM Tris pH 6.5, 40 mM NaCl, 2 mM DTT; 0.7–1.2 mM protein.
In assay [5] the target is B1. In words: ITC; TAZ1 (169 to 185 µM) in the syringe, GB1-tagged RelA–TA2 peptide (10 to 18 µM) in the cell; 25°C; 20 mM Tris pH 8.0, 50 mM NaCl, 1 mM DTT; single-binding site model.
Assay [6] deals with B4. Described as above.
Assay [7] has as its target B1. In words: ITC; TAZ1 (169 to 185 µM) in the syringe, GB1-tagged RelA–TA2 peptide (10 to 18 µM) in the cell; 25°C; 20 mM Tris pH 8.0, 150 mM NaCl, 1 mM DTT; single-binding site model.
The target in assay [8] is B4. The description is as above.
The target of assay [9] is B3. The description is as above.
Assay [10] addresses B2. The assay is described as above.
Assay [11] concerns the target B9. Described as above.

B1: the values for the Kd in [1] and in assay [2] were 57 nM and 244 nM, respectively. B2 displayed a Kd in [2] of 1710 nM.

With B3, in assay [2], binding was characterised by a dissociation constant (Kd) of 1600 nM. Regarding B4, the Kd is 41.2 nM in assay [1] and 174 nM in assay [2]. For the molecule B5, the binding result in assay [3] is listed as “binds”. Take B6: the binding result in assay [4] is listed as “binds”. Consider B7, for which the binding result in assay [3] is “binds”. As for B8, the dH was -5.9 kcal/mol in assay [5]; -6.5 kcal/mol in assay [6]; -7.2 kcal/mol in assay [7]; -7.8 kcal/mol in [8]; -5.4 kcal/mol in [9]; -2.4 kcal/mol in [10]. For the same molecule, the dH in assay [11] was -8.3 kcal/mol.

In turn, B9 came in with a Kd in assay [2] of 387 nM.
